Measurements published in the supplement of paper PMC10567573.

B1: KCNK9 (parent)
chain: CFITLTTIGFGDYVALQTKGALQK
B2: EPB41L3 (parent)
chain: SMQCKVILLDGSEYTCDVEKRSRG

Variants of: B1
Assay: protein stability index of a GFP-peptide fusion (GPS, HEK-293T) (PSI 1-6); higher = more stable
Conditions: c terminus: a fixed tail appended
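Also: lentivirally expressed fusions sorted by FACS into six bins by GFP to DsRed ratio, PSI derived from sequencing read proportions per bin multiplied by bin number.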

| Variant | protein stability index |
| --- | --- |
| CFITLTTIGFGDYVALQTKGALQC [K24C] | 2.9 |
| CFITLTTIGFGDYVALQTKGALQD [K24D] | 3.71 |
| CFITLTTIGFGDYVALQTKGALQH [K24H] | 2.47 |
| CFITLTTIGFGDYVALQTKGALQG [K24G] | 2.28 |
| CFITLTTIGFGDYVALQTKGALQP [K24P] | 2.96 |
| CFITLTTIGFGDYVALQTKGALQS [K24S] | 3.33 |
| CFITLTTIGFGDYVALQTKGALQL [K24L] | 2.51 |
| CFITLTTIGFGDYVALQTKGALQV [K24V] | 3.03 |
| CFITLTTIGFGDYVALQTKGALQT [K24T] | 3.42 |
| CFITLTTIGFGDYVALQTKGALQY [K24Y] | 3.16 |
| CFITLTTIGFGDYVALQTKGALQQ [K24Q] | 2.33 |
| CFITLTTIGFGDYVALQTKGALQN [K24N] | 3.29 |
| CFITLTTIGFGDYVALQTKGALQI [K24I] | 2.09 |
| CFITLTTIGFGDYVALQTKGALQM [K24M] | 2.88 |
| CFITLTTIGFGDYVALQTKGALQF [K24F] | 3.25 |
| CFITLTTIGFGDYVALQTKGALQE [K24E] | 3.56 |
| CFITLTTIGFGDYVALQTKGALQA [K24A] | 2.85 |

| Variant | protein stability index |
| --- | --- |
| CFITLTTIGFGDYVALQTKGALIK [Q23I] | 3.28 |
| CFITLTTIGFGDYVALQTKGALFK [Q23F] | 2.87 |
| CFITLTTIGFGDYVALQTKGALDK [Q23D] | 2.98 |
| CFITLTTIGFGDYVALQTKGALTK [Q23T] | 3.26 |
| CFITLTTIGFGDYVALQTKGALGK [Q23G] | 3.46 |
| CFITLTTIGFGDYVALQTKGALVK [Q23V] | 4.51 |
| CFITLTTIGFGDYVALQTKGALKK [Q23K] | 2.96 |
| CFITLTTIGFGDYVALQTKGALSK [Q23S] | 2.2 |
| CFITLTTIGFGDYVALQTKGALHK [Q23H] | 3.06 |
| CFITLTTIGFGDYVALQTKGALWK [Q23W] | 2.73 |
| CFITLTTIGFGDYVALQTKGALPK [Q23P] | 2.14 |
| CFITLTTIGFGDYVALQTKGALNK [Q23N] | 2.43 |
| CFITLTTIGFGDYVALQTKGALLK [Q23L] | 3.52 |
| CFITLTTIGFGDYVALQTKGALYK [Q23Y] | 2.42 |
| CFITLTTIGFGDYVALQTKGALEK [Q23E] | 1.94 |
| CFITLTTIGFGDYVALQTKGALRK [Q23R] | 1.72 |

Variants of: B2
Assay: as above
Conditions: c terminus: a fixed tail appended

| Variant | protein stability index |
| --- | --- |
| LMQCKVILLDGSEYTCDVEKRSRG [S1L] | 2.2 |
| TMQCKVILLDGSEYTCDVEKRSRG [S1T] | 1.92 |
| DMQCKVILLDGSEYTCDVEKRSRG [S1D] | 3.27 |
| SMQCKMILLDGSEYTCDVEKRSRG [V6M] | 3.36 |
| SMQCKLILLDGSEYTCDVEKRSRG [V6L] | 2.44 |
| SMQCKAILLDGSEYTCDVEKRSRG [V6A] | 2.1 |
| SMQCKHILLDGSEYTCDVEKRSRG [V6H] | 2.56 |
| SMQCKTILLDGSEYTCDVEKRSRG [V6T] | 3.71 |
| SMQCKGILLDGSEYTCDVEKRSRG [V6G] | 3.61 |
| SMQCKIILLDGSEYTCDVEKRSRG [V6I] | 2.2 |
| SMQCKFILLDGSEYTCDVEKRSRG [V6F] | 2.76 |
| SMQCKQILLDGSEYTCDVEKRSRG [V6Q] | 2.97 |
| SMQCKCILLDGSEYTCDVEKRSRG [V6C] | 2.07 |
| SMQCKDILLDGSEYTCDVEKRSRG [V6D] | 4.38 |
| SMQCKVILLDGSEYTCDAEKRSRG [V18A] | 3.5 |
| SMQCKVILLDGSEYTCDPEKRSRG [V18P] | 3.57 |
| SMQCKVILLDGSEYTCDNEKRSRG [V18N] | 3.24 |
| SMQCKVILLDGSEYTCDCEKRSRG [V18C] | 2.29 |
| SMQCKVILLDGSEYTCDSEKRSRG [V18S] | 3.69 |
| SMQCKVILLDGSEYTCDDEKRSRG [V18D] | 3.36 |
| SMQCKVILLDGSEYTCDHEKRSRG [V18H] | 2.72 |

| Variant | protein stability index |
| --- | --- |
| SMQCKVILLDGSEYTCDIEKRSRG [V18I] | 2.82 |
| SMQCKVILLDGSEYTCDMEKRSRG [V18M] | 2.62 |
| SMQCKVIQLDGSEYTCDVEKRSRG [L8Q] | 4.25 |
| SMQCKVIDLDGSEYTCDVEKRSRG [L8D] | 4.41 |
| SMQCKVITLDGSEYTCDVEKRSRG [L8T] | 2.67 |
| SMQCKVIYLDGSEYTCDVEKRSRG [L8Y] | 3.13 |
| SMQCKVIELDGSEYTCDVEKRSRG [L8E] | 4.05 |
| SMQCKVIHLDGSEYTCDVEKRSRG [L8H] | 3.66 |
| SMQCKVICLDGSEYTCDVEKRSRG [L8C] | 3.13 |
| SMQCKVISLDGSEYTCDVEKRSRG [L8S] | 3.79 |
| SMQCKVINLDGSEYTCDVEKRSRG [L8N] | 4.24 |
| SMQCKVIKLDGSEYTCDVEKRSRG [L8K] | 3.43 |
| SMQCKVIFLDGSEYTCDVEKRSRG [L8F] | 4.39 |
| SMQCKVYLLDGSEYTCDVEKRSRG [I7Y] | 2.15 |
| SMQCKVNLLDGSEYTCDVEKRSRG [I7N] | 3.43 |
| SMQCKVHLLDGSEYTCDVEKRSRG [I7H] | 3.03 |
| SMQCAVILLDGSEYTCDVEKRSRG [K5A] | 3.27 |
| SMQCSVILLDGSEYTCDVEKRSRG [K5S] | 3.04 |
| SMQCWVILLDGSEYTCDVEKRSRG [K5W] | 2.59 |
| SMQCTVILLDGSEYTCDVEKRSRG [K5T] | 2.54 |
| SMQCHVILLDGSEYTCDVEKRSRG [K5H] | 2.39 |

| Variant | protein stability index |
| --- | --- |
| SMQCNVILLDGSEYTCDVEKRSRG [K5N] | 3.06 |
| SMQCYVILLDGSEYTCDVEKRSRG [K5Y] | 3.16 |
| SMQCKVILLDGSEYECDVEKRSRG [T15E] | 2.45 |
| SMQCKVILLDGSEYSCDVEKRSRG [T15S] | 3.03 |
| SMQCKVILLDGSEYRCDVEKRSRG [T15R] | 2.45 |
| SMQCKVILLDGSEYTCDVYKRSRG [E19Y] | 2.14 |
| SMQCKVILLDGSEYTCDVIKRSRG [E19I] | 1.93 |
| SMQCKVILLDGSEYTCDVTKRSRG [E19T] | 1.54 |
| SMQCKVILLDGSEYTCDVAKRSRG [E19A] | 2.17 |
| SMQCKVILLDGSEYTCDVGKRSRG [E19G] | 2.51 |
| SMQCKVILLDGSSYTCDVEKRSRG [E13S] | 3.27 |
| SMQCKVILLDGSHYTCDVEKRSRG [E13H] | 2.75 |
| SMQCKVILLDGSQYTCDVEKRSRG [E13Q] | 2.98 |
| SMQCKVILLDGSIYTCDVEKRSRG [E13I] | 1.51 |
| SMQCKVILLDGSAYTCDVEKRSRG [E13A] | 2.14 |
| SMQCKVILLDGSWYTCDVEKRSRG [E13W] | 2.05 |
| SMQCKVILLDGSTYTCDVEKRSRG [E13T] | 2.33 |
| SMQCKVILLDGSCYTCDVEKRSRG [E13C] | 1.81 |
| SMQCKVILLDGSEYTCEVEKRSRG [D17E] | 2.84 |
